Target: T1, Loqs-PD 1,2-mut (Drosophila melanogaster, UniProt Q9VJY9-4 1-359, K189A;K190A;K301A;K302A)
T1 sequence: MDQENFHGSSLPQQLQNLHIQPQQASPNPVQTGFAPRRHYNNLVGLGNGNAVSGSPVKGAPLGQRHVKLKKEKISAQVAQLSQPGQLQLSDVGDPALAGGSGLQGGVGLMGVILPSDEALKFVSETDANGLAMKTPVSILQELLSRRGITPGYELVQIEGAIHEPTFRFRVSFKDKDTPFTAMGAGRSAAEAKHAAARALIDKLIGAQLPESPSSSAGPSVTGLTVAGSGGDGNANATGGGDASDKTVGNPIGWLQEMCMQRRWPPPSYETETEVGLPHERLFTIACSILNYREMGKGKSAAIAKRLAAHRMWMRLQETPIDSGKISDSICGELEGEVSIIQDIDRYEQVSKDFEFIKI
Assay: EMSA; 400 nM RNA, 400-3200 nM protein; EMSA: 20 mM sodium phosphate pH 6.5, 150 mM NaCl, 15% glycerol, 15 min, 1% agarose 1x TBE; NMR: 20 mM sodium phosphate pH 6.5, PS-I or PS-II buffer (50-500 mM NaCl), 292 K for Loqs-PD deltaC
Details: protein: recombinant; tags: His6-GB1 or His6 tag, cleaved by TEV; label: 3' Cy5; hairpin, 21 bp stem, GUGA loop

Q: Does GGAGCUUUCAAAAUGAUCUCCGUGAGGAGAUCAUUUUGAAAGCUCC (structured_RNA, 3' pCp-Cy5 ligated (adds one C)) [21 bp hairpin dsRNA, Cy5] bind?
A: no binding
